# Test results from US20240117030A1 (Pfizer, published 2024).
# T1: human IL-4 (human, UniProt P05112 25-153)
# T1 sequence (looked up): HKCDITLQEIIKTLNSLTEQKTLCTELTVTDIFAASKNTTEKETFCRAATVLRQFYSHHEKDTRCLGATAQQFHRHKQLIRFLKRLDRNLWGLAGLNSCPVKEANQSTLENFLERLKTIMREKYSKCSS
# T2: recombinant human IL-33 (R&D Systems 3625-IL), reduced with DTT (human, UniProt O95760 112-270, limits assumed)
# T2 sequence (looked up): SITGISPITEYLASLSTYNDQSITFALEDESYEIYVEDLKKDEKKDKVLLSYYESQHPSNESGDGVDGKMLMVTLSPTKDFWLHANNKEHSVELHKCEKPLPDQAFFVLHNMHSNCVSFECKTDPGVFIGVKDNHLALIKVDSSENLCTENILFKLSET
# Assays:
# human IL-13 [1] = biological target: human IL-13 (human, UniProt P35225 35-146); assay: cell-based or functional assay
# Target sequence in this assay (P35225 35-146 limits assumed): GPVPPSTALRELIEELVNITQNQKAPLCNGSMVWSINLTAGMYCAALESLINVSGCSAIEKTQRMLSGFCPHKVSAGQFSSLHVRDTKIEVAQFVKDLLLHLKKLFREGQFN
# human IL-4 = biological target: T1, human IL-4; assay: cell-based or functional assay
# human TSLP (long form) = biological target: T3, human TSLP (long form) (human, UniProt Q969D9 29-159, Biotinylated on the Avi tag in some assays; glycosylated (Expi293F expression)); assay: bridging sandwich ELISA: human TSLP coated, Tri-Fab-Fc titrated, IL-13-FLAG added, detected with HRP anti-FLAG (OD450nm)
# T3 construct: biotinylated in some assays; also called lfhTSLP; hTSLP
# Description: For this method, 25 μL/well of 1 μg/mL recombinant human TSLP (in PBS pH7.2) was coated onto a 384-well clear flat bottom Maxisorp plates (NUNC) overnight at 4° C. and blocked with PBS without Mg²⁺ and Ca²⁺ with 3% BSA. Serially diluted Tri-Fab-Fc variants were added to the plates and incubated for 1 hour at room temperature (RT). After washing away the unbound Tri-Fab-Fc by washing with buffer (PBS without Mg²⁺ and Ca²⁺ with 0.05% tween 20), 25 μL/well of 100 ng/mL IL-13-FLAG (Pfizer Inc) was added to the plates and incubated at RT for one hour. The Tri-Fab-Fc bound to both TSLP and IL-13 was detected by HRP conjugated anti-FLAG secondary antibody (Sigma, Cat #A8592).
# human IL-13 [2] = biological target: T4, human IL-13 (human, UniProt P35225 35-146); assay: SPR 37°C, antibody captured by anti-human IgG, human IL-13 1.56-50 nM
# T4 construct: mature; The Pfizer protein carries an N-terminal FLAG tag; bioassays used R&D Systems IL-13; also called hu IL-13; rHu IL-13
# T4 sequence (P35225 35-146 limits assumed, form in doubt): as the sequence (P35225 35-146 limits assumed) above
# Description: The affinity values (KD) were determined using Surface Plasmon Resonance (SPR) for 10 lead variants identified from bioassay screening.
# human IL-13 [3] = biological target: T4, human IL-13; assay: cell-based or functional assay; remark: listed apart in the source
# [4] = biological target: T2, recombinant human IL-33 (R&D Systems …); assay: cell-based or functional assay
Kd (human IL-13 [2]) [nM],CD23: Fold versus IL13-0001 (human IL-13 [3]) [fold],CD23 IC50 [pM] Ave. n = 2 (human IL-13 [3]) [pM],Binder,also measured
,,,IL413TSLP-0251 (other) heavy: not shown chain 1: EVQLVESGGGLVQPGGSLRLSCAASGFTFSSYAMSWVRQAPGKGLEWVASISSGDTTYYPDSVKGRFTISRDNAKNSLYLQMNSLRAEDTAVYYCARNEGYYFGLTLWGQGTLVTVSSRTVAAPSVFIFPPSDEQLKSGTASVVCLLNNFYPREAKVQWKVDNALQSGNSQESVTEQDSKDSTYSLSSTLTLSKADYEKHKVYACEVTHQGLSSPVTKSFNRGECGGGGSEVTLRESGPALVKPTQTLTLTCTFSGFSLSNFGEGLSWIRQPPGKGLEWLAHIYWDDDKRYNPSLKSRLTISKDTSRNQVVLTMTNMDPVDTATYYCARRETVFYWYFDVWGQGTTVTVSSASTKGPSVFPLAPSSKSTSGGTAALGCLVKDYFPEPVTVSWNSGALTSGVHTFPAVLQSSGLYSLSSVVTVPSSSLGTQTYICNVNHKPSNTKVDKKVEPKSCEKTHTCPECPAPEAAGAPSVFLFPPKPKDTLMISRTPEVTCVVVDVSHEDPEVKFNWYVDGVEVHNAKTKPREEQYNSTYRVVSVLTVLHQDWLNGKEYKCKVSNKALPAPIEKTISKAKGQPREPQVYTLPPSREEMTKNQVSLTCEVKGFYPSDIAVEWESNGQPENNYKTTPPVLDSDGSFFLYSKLTVDKSRWQQGNVFSCSVMHEALHNHYTQKSLSLSPGK light 1: SYVLTQPPSVSVAPGQTARITCGGNNLGSKSVHWYQQKPGQAPVLVVYDDSDRPSWIPERFSGSNSGNTATLTISRGEAGDEADYYCQVWDSSSDHVVFGGGTKLTVLGQPKAAPSVTLFPPSSEELQANKATLVCLISDFYPGAVTVAWKADSSPVKAGVETTTPSKQSNNKYAASSYLSLTPEQWKSHRSYSCQVTHEGSTVEKTVAPTECS light 2: DIQMTQSPSSLSASVGDRVTITCKASQSVDEDGDSYMNWYQQKPGKAPKLLIYAASNLESGVPSRFSGSGSGTDFTLTISSLQPEDFATYYCQQSNEDPPTFGGGTKVEIKRTVAAPSVFIFPPSDEQLKSGTASVVCLLNNFYPREAKVQWKVDNALQSGNSQESVTEQDSKDSTYSLSSTLTLSKADYEKHKVYACEVTHQGLSSPVTKSFNRGEC chain 2: DIQMTQSPSSLSASVGDRVTITCKASESVDHFGWSLVHWYQQKPGKAPKLLIYRASNLESGVPSRFSGSGSGTDFTLTISSLQPEDFATYYCQQSNEDPWTFGGGTKVEIKASTKGPSVFPLAPSSKSTSGGTAALGCLVKDYFPEPVTVSWNSGALTSGVHTFPAVLQSSGLYSLSSVVTVPSSSLGTQTYICNVNHKPSNTKVDKKVEPKSC,a-hIL-13 IC50 [pM] (human IL-13 [1]): 13.7 pM; a-hIL-4 IC50 [pM] (human IL-4): 6.11 pM
,,,"IL413TSLP-0007 (trispecific antibody, human IgG1, kappa, lambda) heavy: EVTLRESGPALVKPTQTLTLTCTFSGFSLSNFGEGLSWIRQPPGKGLEWLAHIYWDDDKRYNPSLKSRLTISKDTSRNQVVLTMTNMDPVDTATYYCARRETVFYWYFDVWGQGTTVTVSSASTKGPSVFPEAPSSKSTSGGTAALGCLVKDYFPEPVTVSWNSGALTSGVHTFPAVLQSSGLYSLGSVVTVPSSSLGTQTYICNVNHKPSNTKVDKKVEPKSCDKTHTCPPCPAPEAAGAPSVFLFPPKPKDTLMISRTPEVTCVVVDVSHEDPEVKFNWYVDGVEVHNAKTKPREEQYNSTYRVVSVLTVLHQDWLNGKEYKCKVSNKALPAPIEKTISKAKGQPREPQVYTLPPCREEMTKNQVSLSCAVKGFYPSDIAVEWESNGQPENNYKTTPPVLDSDGSFFLVSKLTVDKSRWQQGNVFSCSVMHEALHNHYTQKSLSLSPGK chain 1: SYVLTQPPSVSVAPGQTARITCGGNNLGSKSVHWYQQKPGQAPVLVVYDDSDRPSWIPERFSGSNSGNTATLTISRGEAGDEADYYCQVWDSSSDHVVFGGGTKLTVLASTKGPSVFPLAPSSKSTSGGTAALGCLVKDYFPEPVTVSWNSGALTSGVHTFPAVLQSSGLYSLSSVVTVPSSSLGTQTYICNVNHKPSNTKVDKKVEPKSCGGGGSEVQLVESGGGLVQPGGSLRLSCAASGFTFSSYAMSWVRQAPGKGLEWVASISSGDTTYYPDSVKGRFTISRDNAKNSLYLQMNSLRAEDTAVYYCARNEGYYFGLTLWGQGTLVTVSSASTKGPSVFPKAPSSKSTSGGTAALGCLVKDYFPEPVTVSWNSGALTSGVHTFPAVLQSSGLYSLSSSVTVPSSSLGTQTYICNVNHKPSNTKVDKKVEPKSCDKTHTCPPCPAPEAAGAPSVFLFPPKPKDTLMISRTPEVTCVVVDVSHEDPEVKFNWYVDGVEVHNAKTKPREEQYNSTYRVVSVLTVLHQDWLNGKEYKCKVSNKALPAPIEKTISKAKGQPREPQVCTLPPSREEMTKNQVSLWCLVKGFYPSDIAVEWESNGQPENNYKTTPPVLDSDGSFFLYSKLTVDKSRWQQGNVFSCSVMHEALHNHYTQKSLSLSPGK light 1: DIQMTQSPSSLSASVGDRVTITCKASQSVDEDGDSYMNWYQQKPGKAPKLLIYAASNLESGVPSRFSGSGSGTDFTLTISSLQPEDFATYYCQQSNEDPPTFGGGTKVEIKRTVAAPSVFIFPPSDEQLKSGTASVSCLLNNFYPREAKVQWKVDNALQSGNSQESVTEQDSKDSTYSLKSTLTLSKADYEKHKVYACEVTHQGLSSPVTKSFNRGEC light 2: DIQMTQSPSSLSASVGDRVTITCKASESVDHFGWSLVHWYQQKPGKAPKLLIYRASNLESGVPSRFSGSGSGTDFTLTISSLQPEDFATYYCQQSNEDPWTFGGGTKVEIKRTVAAPSVFIFPPSDEQLKSGTASVSCLLNNFYPREAKVQWKVDNALQSGNSQESVTEQDSKDSTYSLDSTLTLSKADYEKHKVYACEVTHQGLSSPVTKSFNRGEC chain 2: QMQLVESGGGVVQPGRSLRLSCAASGFTFRTYGMHWVRQAPGKGLEWVAVIWYDGSNKHYADSVKGRFTITRDNSKNTLNLQMNSLRAEDTAVYYCARAPQWELVHEAFDIWGQGTMVTVSSGQPKAAPSVTLFPPSSEELQANKATLVCLISDFYPGAVTVAWKADSSPVKAGVETTTPSKQSNNKYAASSYLSLTPEQWKSHRSYSCQVTHEGSTVEKTVAPTECS",EC50 (read off the curve) (human TSLP (long form)): ~0.6 nM
0.0717,0.81,7.4,"IL13-0259 (antibody, IgG1, V domains shown, IgG1 effector-null/kappa IgG) VH: EVQLVESGGGLVQPGGSLRLSCAASGFTFSSYAMSWVRQAPGKGLEWVASISTGDTTYYPDSVKGRFTISRDNAKNSLYLQMNSLRAEDTAVYYCARNEGYYFGLTQWGRGTLVTVSS VL: DIQMTQSPSSLSASVGDRVTITCRASQSVDHFGWSLVHWYQQKPGKAPKLLIYRASNLESGVPSRFSGSGSGTDFTLTISSLQPEDFATYYCQQSNEDPWTFGGGTKVEIK",
0.0736,1.01,5.9,"IL13-0271 (antibody, IgG1, V domains shown, IgG1 effector-null/kappa IgG; also called IL13433-0271) VH: EVQLVESGGGLVQPGGSLRLSCAASGFTFSSYAMSWVRQAPGKGLEWVASISTGDTTYYPDSVKGRFTISRDNAKNSLYLQMNSLRAEDTAVYYCARNEGYYFGLTQWGRGTLVTVSS VL: DIQMTQSPSSLSASVGDRVTITCRASESVDHFGWSLVHWYQQKPGKAPKLLIYRADSLETGVPSRFSGSGSGTDFTLTISSLQPEDFATYYCQQSNEDPWTFGGGTKVEIK",
0.0932,0.67,9,"IL13-0270 (antibody, V domains shown, IgG1 effector-null/kappa IgG; also called IL13433-0270) VH: EVQLVESGGGLVQPGGSLRLSCAASGFTFSSYAMSWVRQAPGKGLEWVASISTGDTTYYPDSVKGRFTISRDNAKNSLYLQMNSLRAEDTAVYYCARNEGYYFGLTLWGQGTLVTVSS VL: DIQMTQSPSSLSASVGDRVTITCRASESVDHFGWSLVHWYQQKPGKAPKLLIYRADSLETGVPSRFSGSGSGTDFTLTISSLQPEDFATYYCQQSNEDPWTFGGGTKVEIK",
,,,"IL33-0721 (antibody, IgG1, V domains shown) VH: EVQLVESGGGLVQPGGSLRLSCAASGFEFSHYWMYWVRQAPGKGLEWVAAITPNAGEDYYPESVKGRFTISRDNAKNSLYLQMNSLRAEDTAVYYCARGYYRYTKYSLGYWGQGTLVTVSS VL: DIQMTQSPSSLSASVGDRVTITCRASQPIHQFLDWYQQKPGKAPKLLIYFGHILQEGVPSRFSGSGSGTDFTLTISSLQPEDFATYYCFQYKQGWSFGGGTKVEIK","IC50 [nM] versus reduced human IL-33 (R&D), IC50 (AVE) [4]: 0.026 nM"
